# Test results published in paper PMC2914609 (Nanomedicine (London, England), 2010).
# B1: Phage fusion 55-mer coat protein (pVIII coat fusion protein bearing the MCF-7-specific peptide DMPGTVLP) (designed binder)
# chain: ADMPGTVLPDPAKAAFDSLQASATEYIGYAWAMVVVIVGATIGIKLFKKFTSKAS
# Molecular target: the molecule itself
# Test: SEC
protein,measurement,value
B1,stoichiometry N,8
